The target of experiment [1] is Pin1 (human) (UniProt Q13526). The experiment is described as follows: fluorescence anisotropy, FITC-labeled peptide. On the technique in general: In fluorescence polarisation assays a small probe gives low polarisation when free and higher when bound to something large.
Experiment [2] has as its target full-length human S16A/Y23A mutant Pin1 (human) (UniProt Q13526). Nature of the experiment: fluorescence anisotropy, FITC-labeled peptide.
Experiment [3] concerns the target Pin1 (human) (UniProt Q13526). Nature of the experiment: cell-based or functional assay.
Experiment [4] addresses MBP-Pin1 (S16A/Y23A mutant Pin1 as a maltose-binding protein fusion at the N-terminus) (UniProt Q13526). The experiment is described as follows: FA of TMR-labeled peptide released from the bead, 5 µM MBP-Pin1.
Experiment [5] concerns the target ybbR-tagged PTP1B catalytic domain (amino acids 1-321) (UniProt P18031). Nature of the experiment: cell-based or functional assay.

Starred links: 1 amine or outer side, 2 acyl side, 3 side chain; linkers in the order of their positions; H or OH if unused. Non-standard residues stand in square brackets, D forms with d. No end group written: not given here. Trimesoyl = O=C(c1cc(C(=O)[*:2])cc(C(=O)[*:3])c1)[*:1]; F2Pmp = N[C@@H](Cc1ccc(C(F)(F)P(=O)(O)O)cc1)C(=O)O; Phe(4-F) = N[C@@H](Cc1ccc(F)cc1)C(=O)O; dPhe(4-F) = N[C@H](Cc1ccc(F)cc1)C(=O)O; 2Nal = N[C@@H](Cc1ccc2ccccc2c1)C(=O)O; Phg = N[C@H](C(=O)O)c1ccccc1; Pip = O=C(O)[C@@H]1CCCCN1; Nle = CCCC[C@H](N)C(=O)O; Dap = NC[C@H](N)C(=O)O; Sar = CNCC(=O)O

Chain of ybbR-tagged PTP1B catalytic domain (amino acids 1-321) (P18031 other isoform, or with tags, fused parts or gaps limits assumed): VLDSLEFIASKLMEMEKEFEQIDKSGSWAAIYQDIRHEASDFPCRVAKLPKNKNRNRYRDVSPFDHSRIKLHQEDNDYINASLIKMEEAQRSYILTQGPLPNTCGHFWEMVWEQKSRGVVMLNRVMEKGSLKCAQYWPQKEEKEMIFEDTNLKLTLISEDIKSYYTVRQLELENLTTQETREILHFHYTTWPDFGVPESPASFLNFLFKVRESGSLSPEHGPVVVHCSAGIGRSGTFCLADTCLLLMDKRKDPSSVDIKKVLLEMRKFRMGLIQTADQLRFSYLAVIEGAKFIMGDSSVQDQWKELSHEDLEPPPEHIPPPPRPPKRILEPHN

B1: peptide 22 (Table 18) (peptide)
peptide: Trimesoyl-P[Sar][dD][Pip][2Nal]RR[dF][Dap]F[2Nal]RRRR[Dap]K
modifications: linker (positions not given here) via Trimesoyl; not fully specified (C-terminus, bridges); printed as bicyclo[Tm-(Pro-Sar-D-Asp-Pip-Nal-Arg-Arg-D-Phe)-Dap-(Phe-Nal-Arg-Arg-Arg-Arg-Dap)]-Lys
As for B1, the fold increase of Pin1 inhibitory activity against the D-Ala parent with Pin1 (human) [1] turned out to be 2 fold.

B2: Pin1 inhibitor 5 (peptide)
peptide: AXXXXYQK
modifications: cyclo(D-Ala-Sar-D-pThr-Pip-Nal-Tyr-Gln)-Lys-NH2
For orientation: Kd means the equilibrium constant for the complex coming apart. The low end stands for tighter binding, the high end for weaker binding. Molecule B2 registered a Kd with Pin1 (human) [1] of 240 nM.

B3: Pin1 inhibitor 7 (peptide)
peptide: XAXXXXRAAXFXRRRRXK
modifications: not fully specified; bicyclo[Tm(D-Ala-Sar-D-pThr-Pip-Nal-Arg-Ala-D-Ala)-Dap-(Phe-Nal-Arg-Arg-Arg-Arg-Dap)]-Lys-NH2
In experiment [2], B3 gave a fold improvement of potency against inhibitor 6 of 2 fold. Further, in the experiment with Pin1 (human) [3], the IC50 (HeLa cell growth, MTT assay) was 1800 nM and the PML protein level in HeLa cells (western blot), at 5 µM is 3.1 fold.

B4: peptide 37 (Table 18) (peptide)
peptide: Trimesoyl-[dPhe(4-F)][Phe(4-F)][dT][Pip][2Nal]RA[dF][Dap]F[2Nal]RRRR[Dap]K
modifications: linker (positions not given here) via Trimesoyl; not fully specified (C-terminus, bridges); printed as bicyclo[Tm-(D-4-Fpa-Fpa-D-Thr-Pip-Nal-Arg-Ala-D-Phe)-Dap-(Phe-Nal-Arg-Arg-Arg-Arg-Dap)]-Lys
Consider B4, for which, in the experiment with Pin1 (human) [3], the IC50 (HeLa cell growth, MTT assay) came to 1000 nM; the IC50 (cis-trans isomerase activity toward Suc-Ala-Glu-Pro-Phe-pNA) is 170 nM; the PML protein level in HeLa cells (western blot), at 0.2 µM inhibitor came to 1.8 fold; the PML protein level in HeLa cells (western blot), at ˜1 µM inhibitor worked out at 3.3 fold.

B5: peptide 8 (Table 18) (peptide)
peptide: XHXTXXRAAXFXRRRRXK
modifications: not fully specified; bicyclo[Tm-(His-Phg-D-Thr-Pip-Nal-Arg-Ala-D-Ala)-Dap-(Phe-Nal-Arg-Arg-Arg-Arg-Dap)]-Lys
With B5, the FA increase relative to the no-protein control in experiment [4] was greater than 50%. Further, the dissociation constant Kd with Pin1 (human) [1] came out at 1000 nM.

B6: peptide 4 (Table 18) (peptide)
peptide: Trimesoyl-[dF][Phe(4-F)][dT][Pip][2Nal]RA[dA][Dap]F[2Nal]RRRR[Dap]K
modifications: linker (positions not given here) via Trimesoyl; not fully specified (C-terminus, bridges); printed as bicyclo[Tm-(D-Phe-Fpa-D-Thr-Pip-Nal-Arg-Ala-D-Ala)-Dap-(Phe-Nal-Arg-Arg-Arg-Arg-Dap)]-Lys
The molecule B6 returned a Kd with Pin1 (human) [1] of 1000 nM.

B7: Monocyclic Inhibitor 1 (peptide)
peptide: cyclo([dT][dN][dV][F2Pmp][dA]RRRR[2Nal]FQ)
SMILES: CC(C)[C@H]1NC(=O)[C@@H](CC(N)=O)NC(=O)[C@@H]([C@H](C)O)NC(=O)[C@H](CCC(N)=O)NC(=O)[C@H](Cc2ccccc2)NC(=O)[C@H](Cc2ccc3ccccc3c2)NC(=O)[C@H](CCCNC(=N)N)NC(=O)[C@H](CCCNC(=N)N)NC(=O)[C@H](CCCNC(=N)N)NC(=O)[C@H](CCCNC(=N)N)NC(=O)[C@@H](C)NC(=O)[C@H](Cc2ccc(C(F)(F)P(=O)(O)O)cc2)NC1=O
As for B7, in experiment [5], the IC50 (inhibition of pNPP hydrolysis) was determined as 100 nM.

B8: Monocyclic Inhibitor 3 (peptide)
peptide: cyclo(IP[Phg][F2Pmp][Nle]RRRR[2Nal]FQ)
As to B8, the IC50 (inhibition of pNPP hydrolysis) in experiment [5] was found to be 200 nM.

B9: peptide 7 (Table 18) (peptide)
peptide: XXIEXXRAAXFXRRRRXK
modifications: not fully specified; bicyclo[Tm-(Mpa-Ile-D-Glu-Pip-Nal-Arg-Ala-D-Ala)-Dap-(Phe-Nal-Arg-Arg-Arg-Arg-Dap)]-Lys
On to B9, for which the FA increase relative to the no-protein control in experiment [4] is greater than 50%. In the experiment with Pin1 (human) [1], the equilibrium dissociation constant (Kd) is 1000 nM.

B10: peptide 6 (Table 18) (peptide)
peptide: XXHEXXRAAXFXRRRRXK
modifications: not fully specified; bicyclo[Tm-(Phg-His-D-Glu-Pip-Nal-Arg-Ala-D-Ala)-Dap-(Phe-Nal-Arg-Arg-Arg-Arg-Dap)]-Lys
For B10, the FA increase relative to the no-protein control in experiment [4] was greater than 50%. In the experiment with Pin1 (human) [1], the dissociation constant Kd was found to be 1000 nM.

These data come from patent US20200385427A1.
